According to patent US12285470B2, “Trim proteins and galectins cooperate and codirect autophagy and are useful in the treatment of autophagy related diseases” (UNM RAINFOREST INNOVATIONS, priority 2016, dated 2025):

T1: Galectin-8 (Homo sapiens, UniProt O00214)
T1 construct: made in house; host or cells: Escherichia coli SoluBL21
T1 sequence (O00214 1-359 isoform O00214-2): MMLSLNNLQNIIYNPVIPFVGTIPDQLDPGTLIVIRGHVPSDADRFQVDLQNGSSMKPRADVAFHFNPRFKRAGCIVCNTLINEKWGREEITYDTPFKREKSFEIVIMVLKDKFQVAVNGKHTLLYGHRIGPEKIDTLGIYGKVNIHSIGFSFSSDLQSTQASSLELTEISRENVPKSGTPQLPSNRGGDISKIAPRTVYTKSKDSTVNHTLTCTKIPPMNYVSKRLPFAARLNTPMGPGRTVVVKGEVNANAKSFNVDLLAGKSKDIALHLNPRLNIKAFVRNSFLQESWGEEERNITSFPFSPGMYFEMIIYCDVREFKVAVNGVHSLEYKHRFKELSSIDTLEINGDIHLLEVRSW


What was measured:
[1] = biological target: T2, Galectin-3 (Homo sapiens, UniProt P17931); test: GST pulldown of in vitro translated radiolabeled TRIMs with GST-Galectin-3; assay type: binding; conditions: in vitro translated 35S-Myc-HA-TRIMs, no ULK1 added
T2 construct: made in house; host or cells: Escherichia coli SoluBL21
T2 sequence (P17931 whole entry): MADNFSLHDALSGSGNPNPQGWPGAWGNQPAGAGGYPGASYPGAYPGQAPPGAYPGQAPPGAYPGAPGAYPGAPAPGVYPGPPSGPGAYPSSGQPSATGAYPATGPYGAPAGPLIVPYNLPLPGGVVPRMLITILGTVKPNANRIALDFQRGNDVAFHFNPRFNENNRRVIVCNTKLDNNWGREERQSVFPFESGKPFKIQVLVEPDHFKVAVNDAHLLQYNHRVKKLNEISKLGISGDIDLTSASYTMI
Description: (§1) GST-fusion proteins were expressed in Escherichia coli SoluBL21 (Amsbio). […] The [^35S] labeled proteins were produced using the TNT T7 Quick Coupled Transcription/Translation System (Promega) in the presence of [^35S] L-methionine. The proteins were eluted from washed beads by boiling in SDS-PAGE gel loading buffer. separated by SDS-PAGE, and radiolabeled proteins were detected in a Fujifilm bioimaging analyzer BAS-5000 (Fuji).

[2] = biological target: T1, Galectin-8; test: GST pulldown of in vitro translated radiolabeled TRIMs with GST-Galectin-8; assay type: binding; conditions: in vitro translated 35S-Myc-HA-TRIMs
Description: as §1

Molecule	binding to GST-Galectin-3 in GST pulldown [1]	binding to GST-Galectin-8 in GST pulldown [2]
TRIM21: TRIM protein, Accession No. NM_003141, SEQ ID NO: 8	did not	did not
TRIM55: TRIM (tripartite motif) protein tested in GST-Galectin pulldowns (protein, left off: small tags and cut ends, TRIM (tripartite motif) protein tested in GST-Galectin pulldowns) MSASLNYKSFSKEQQTMDNLEKQLICPICLEMFTKPVVILPCQHNLCRKCASDIFQASNPYLPTRGGTTMASGGRFRCPSCRHEVVLDRHGVYGLQRNLLVENIIDIYKQESTRPEKKSDQPMCEEHEEERINIYCLNCEVPTCSLCKVFGAHKDCQVAPLTHVFQRQKSELSDGIAILVGSNDRVQGVISQLEDTCKTIEECCRKQKQELCEKFDYLYGILEERKNEMTQVITRTQEEKLEHVRALIKKYSDHLENVSKLVESGIQFMDEPEMAVFLQNAKTLLKKISEASKAFQMEKIEHGYENMNHFTVNLNREEKIIREIDFYREDEDEEEEEGGEGEKEGEGEVGGEAVEVEEVENVQTEFPGEDENPEKASELSQVELQAAPGALPVSSPEPPPALPPAADAPVTQGEVVPTGSEQTTESETPVPAAAETADPLFYPSWYKGQTRKATTNPPCTPGSEGLGQIGPPGSEDSNVRKAEVAAAAASERAAVSGKETSAPAATSQIGFEAPPLQGQAAAPASGSGADSEPARHIFSFSWLNSLNE	did not	did not
TRIM20: TRIM protein, Accession No. NM_000243, SEQ ID NO: 7 (protein, listed as Homo sapiens) MAKTPSDHLLSTLEELVPYDFEKFKFKLQNTSVQKEHSRIPRSQIQRARPVKMATLLVTYYGEEYAVQLTLQVLRAINQRLLAEELHRAAIQEYSTQENGTDDSAASSSLGENKPRSLKTPDHPEGNEGNGPRPYGGGAASLRCSQPEAGRGLSRKPLSKRREKASEGLDAQGKPRTRSPALPGGRSPGPCRALEGGQAEVRLRRNASSAGRLQGLAGGAPGQKECRPFEVYLPSGKMRPRSLEVTISTGEKAPANPEILLTLEEKTAANLDSATEPRARPTPDGGASADLKEGPGNPEHSVTGRPPDTAASPRCHAQEGDPVDGTCVRDSCSFPEAVSGHPQASGSRSPGCPRCQDSHERKSPGSLSPQPLPQCKRHLKQVQLLFCEDHDEPICLICSLSQEHQGHRVRPIEEVALEHKKKIQKQLEHLKKLRKSGEEQRSYGEEKAVSFLKQTEALKQRVQRKLEQVYYFLEQQEHFFVASLEDVGQMVGQIRKAYDTRVSQDIALLDALIGELEAKECQSEWELLQDIGDILHRAKTVPVPEKWTTPQEIKQKIQLLHQKSEFVEKSTKYFSETLRSEMEMFNVPELIGAQAHAVNVILDAETAYPNLIFSDDLKSVRLGNKWERLPDGPQRFDSCIIVLGSPSFLSGRRYWEVEVGDKTAWILGACKTSISRKGNMTLSPENGYWVVIMMKENEYQASSVPPTRLLIKEPPKRVGIFVDYRVGSISFYNVTARSHIYTFASCSFSGPLQPIFSPGTRDGGKNTAPLTICPVGGQGPD	bound	bound
TRIM6: TRIM (tripartite motif) protein tested in GST-Galectin pulldowns (protein, left off: small tags and cut ends, TRIM (tripartite motif) protein tested in GST-Galectin pulldowns) MTSPVLVDIREEVTCPICLELLTEPLSIDCGHSFCQACITPNGRESVIGQEGERSCPVCQTSYQPGNLRPNRHLANIVRRLREVVLGPGKQLKAVLCADHGEKLQLFCQEDGKVICWLCERSQEHRGHHTFLVEEVAQEYQEKFQESLKKLKNEEQEAEKLTAFIREKKTSWKNQMEPERCRIQTEFNQLRNILDRVEQRELKKLEQEEKKGLRIIEEAENDLVHQTQSLRELISDLERRCQGSTMELLQDVSDVTERSEFWTLRKPEALPTKLRSMFRAPDLKRMLRVCRELTDVQSYWVDVTLNPHTANLNLVLAKNRRQVRFVGAKVSGPSCLEKHYDCSVLGSQHFSSGKHYWEVDVAKKTAWILGVCSNSLGPTFSFNHFAQNHSAYSRYQPQSGYWVIGLQHNHEYRAYEDSSPSLLLSMTVPPRRVGVFLDYEAGTVSFYNVTNHGFPIYTFSKYYFPTTLCPYFNPCNCVIPMTLRRPSS	bound	bound
TRIM56: TRIM protein, Accession No. NM_030961, SEQ ID NO: 10 (protein, listed as Homo sapiens) MVSHGSSPSLLEALSSDFLACKICLEQLRAPKTLPCLHTYCQDCLAQLADGGRVRCPECRETVPVPPEGVASFKTNFFVNGLLDLVKARACGDLRAGKPACALCPLVGGTSTGGPATARCLDCADDLCQACADGHRCTRQTHTHRVVDLVGYRAGWYDEEARERQAAQCPQHPGEALRFLCQPCSQLLCRECRLDPHLDHPCLPLAEAVRARRPGLEGLLAGVDNNLVELEAARRVEKEALARLREQAARVGTQVEEAAEGVLRALLAQKQEVLGQLRAHVEAAEEAARERLAELEGREQVARAAAAFARRVLSLGREAEILSLEGAIAQRLRQLQGCPWAPGPAPCLLPQLELHPGLLDKNCHLLRLSFEEQQPQKDGGKDGAGTQGGEESQSRREDEPKTERQGGVQPQAGDGAQTPKEEKAQTTREEGAQTLEEDRAQTPHEDGGPQPHRGGRPNKKKKFKGRLKSISREPSPALGPNLDGSGLLPRPIFYCSFPTRMPGDKRSPRITGLCPFGPREILVADEQNRALKRFSLNGDYKGTVPVPEGCSPCSVAALQSAVAFSASARLYLINPNGEVQWRRALSLSQASHAVAALPSGDRVAVSVAGHVEVYNMEGSLATRFIPGGKASRGLRALVFLTTSPQGHFVGSDWQQNSVVICDGLGQVVGEYKGPGLHGCQPGSVSVDKKGYIFLTLREVNKVVILDPKGSLLGDFLTAYHGLEKPRVTTMVDGRYLVVSLSNGTIHIFRVRSPDS	did not	did not
TRIM 17: TRIM (tripartite motif) protein tested in GST-Galectin pulldowns (protein, left off: small tags and cut ends, TRIM (tripartite motif) protein tested in GST-Galectin pulldowns) MEAVELARKLQEEATCSICLDYFTDPVMTTCGHNFCRACIQLSWEKARGKKGRRKRKGSFPCPECREMSPQRNLLPNRLLTKVAEMAQQHPGLQKQDLCQEHHEPLKLFCQKDQSPICVVCRESREHRLHRVLPAEEAVQGYKLKLEEDMEYLREQITRTGNLQAREEQSLAEWQGKVKERRERIVLEFEKMNLYLVEEEQRLLQALETEEEETASRLRESVACLDRQGHSLELLLLQLEERSTQGPLQMLQDMKEPLSRKNNVSVQCPEVAPPTRPRTVCRVPGQIEVLRGFLEDVVPDATSAYPYLLLYESRQRRYLGSSPEGSGFCSKDRFVAYPCAVGQTAFSSGRHYWEVGMNITGDALWALGVCRDNVSRKDRVPKCPENGFWVVQLSKGTKYLSTFSALTPVMLMEPPSHMGIFLDFEAGEVSFYSVSDGSHLHTYSQATFPGPLQPFFCLGAPKSGQMVISTVTMWVKG	bound	bound
